Assay results from the supplement of paper PMC12042874.
± gives the uncertainty stated by the source.

Experiment: amyloid nucleation score (Sup35N fusion, yeast selection) (log enrichment); library NNK2; higher = more nucleation; inactive = no reads after selection
Outline: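 Three technical output replicates were used for random libraries. Psi-negative yeast expressing peptides of 20 random codons fused to Sup35N were induced with 100 μM copper sulfate for 24 hours and grown 7 days at 30°C on medium lacking adenine and uracil, and input and output plasmid inserts were Illumina-sequenced, excluding sequences with under 100 input reads. The nucleation score is the DiMSum log enrichment of output over input reads, centred on the mode score of non-aggregating sequences.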

| Substance | amyloid nucleation score |
| --- | --- |
| MSFYPRWFSQGMLWCKHHHA | 0.516 ± 0.81 |
| ACVCHREGCVAKGIIVM | 0.237 ± 1 |
| CNMLRVNHRNLVLTDMCNG | 0.204 ± 0.8 |
| VMLNWDMGDFRA | inactive |
| TVGNF | 1.25 ± 0.47 |
| GFMKPSRYLNMVKFNCRLRS | inactive |
| TWMSYFVHVSVGFLVYYLYI | -0.919 ± 1 |
| YHGFSQDCLNV | -0.042 ± 0.55 |
| TYSFVSLTYDSVTVFALTRC | -0.326 ± 0.49 |
| ESVRASPV | 0.093 ± 0.28 |
| RGERVSPNNGTS | 0.87 ± 0.14 |
| NQWDPMFDRIPTMAALAGPG | 3.4 ± 0.1 |
| SRFRIMSNLGVKWGPCRVYL | 0.164 ± 0.8 |
| RNSLKARYWWGLSGLLKVW | -1.01 ± 0.55 |
| QARYFFTAARYITVLWKSTF | -0.487 ± 0.56 |
| AWHIPLTCGLHVIFLGR | inactive |
| GMVAICFYHM | 6.05 ± 0.046 |
| STSIAVANHWVSYFFVSSGL | 8.998 ± 0.038 |
| KLFQNHLIINCPAMVISNEQ | 7.609 ± 0.057 |
| VISASSVAP | 0.557 ± 0.31 |
| IVHILYECGAFRLPRGLY | -0.538 ± 0.38 |
| VVWEYIRYRCCTYDAVYTRS | 0.522 ± 0.74 |
| TRVDDLIR | -0.191 ± 0.32 |
| CMSNAKCKGVDFAAGKLLSC | -0.004 ± 0.49 |
| SEFLRKVSFFLFYLFSSGHL | -0.73 ± 0.61 |

| Substance | amyloid nucleation score |
| --- | --- |
| NARWKDVYHPLTYCFVNLWT | 8.115 ± 0.034 |
| IDSYLNTSKASRVPCDLRAL | 0.67 ± 0.81 |
| VGSDWKSVNIFAVDEPGSTY | -1.43 ± 0.55 |
| HIRFYVLSRNRSASNISIFT | 3.09 ± 0.054 |
| GKVAAGVIGRYTY | -0.477 ± 0.22 |
| QTNYEAHFDRVINYAFVHLF | -0.392 ± 0.79 |
| FNWDNFSKLVAKNNLVISKL | inactive |
| HRDGLPVVTL | 0.034 ± 1.1 |
| PEFGTDIPKSRRRKEGCRGG | 0.717 ± 0.23 |
| YGSRVYLRVWKLGCFGQYGE | 1.68 ± 0.27 |
| FPLLNCKRACLKAAVEAHYR | 0.076 ± 0.61 |
| LLPSHISASNHIWWLKTS | 0.307 ± 0.31 |
| TAYSA | 0.521 ± 0.41 |
| YYNIQLSFVDMVLMYYDESM | 4.443 ± 0.04 |
| SRLGFMAKPLMDVS | 2.79 ± 0.09 |
| RFTVFRSLKNYSRMHPLIKG | 4.929 ± 0.046 |
| GSKTRFF | inactive |
| FFYSGRGYTDKWHMGSLPRC | -0.964 ± 0.76 |
| KRGSAEFNQLDHYECTRYEC | inactive |
| ITDGLYLTWGFDP | 0.931 ± 0.74 |
| RVCMINSYLLVTRCVGDN | 8.387 ± 0.028 |
| YIIWLI | inactive |
| LLWWMCQYEIFWDKMLYLES | 0.074 ± 1 |
| VLFCL | -0.806 ± 0.48 |
| FKNRGLLICFEEEHLCAKRR | -1.05 ± 0.78 |

| Substance | amyloid nucleation score |
| --- | --- |
| MLDVCGVLHLPRRSLIAFVA | 1.27 ± 0.21 |
| LKNLGYNMSPMYHWHCSSSK | -0.003 ± 1.1 |
| VIKFDQISCNSFPNSLL | -0.479 ± 0.55 |
| NFNGYM | -1.09 ± 0.3 |
| SVDSLWQYQSFRALFPCFMS | inactive |
| NFNVQKIFNGDCDLVWRGFV | -1.31 ± 0.76 |
| LYTSSATHLIRP | inactive |
| DNKSCFTNVWNYNVTEHWGH | -1.4 ± 0.54 |
| TKNACMPRGQGRMAPLRCCL | 0.857 ± 0.51 |
| VVTLRCSIVKEDTNGLLPGV | 2.79 ± 0.09 |
| VRYMLRTLEYMSRVGCSISH | 0.101 ± 0.76 |
| ARVIECLHGRN | -0.147 ± 0.44 |
| SLTTLTAVHSCFRLNAWLYF | 0.477 ± 0.29 |
| RSALVGGRHNVVNWVRGSKM | 0.079 ± 0.55 |
| LFMPGSFFDIFE | -2.05 ± 0.78 |
| RFMVTTAGRVLPLLSMRGWA | 4.68 ± 0.061 |
| NDLESMYSEGFPLLNTAHK | inactive |
| QESWHNYESS | -0.805 ± 0.64 |
| STMAFWSYHGWCYGVLIL | -0.898 ± 0.61 |
| SSLTPHWRVRKYDWYSIGSG | -0.8 ± 0.41 |
| TAGSTSSEADISLF | 4.02 ± 0.13 |
| DVKDDKLFNCLDVVMWVGNL | -0.058 ± 0.15 |
| YDLGLKFNSHLATWGGFYHW | -0.746 ± 0.76 |
| YTLNPGFHHRFCVWTA | inactive |
| DRWGFDFCQLLV | 1.95 ± 0.12 |

| Substance | amyloid nucleation score |
| --- | --- |
| KPSKYPVYLLGVVKVQVDYD | -0.849 ± 1.1 |
| WFMVYYSLFTVNIGISRMDH | 3.52 ± 0.16 |
| MPAFWSWSERGLSVRILGPA | 3.05 ± 0.084 |
| FHCVVVYNNRQMCSVTKDSS | 7.962 ± 0.031 |
| RVNMDAGVLSVHLEAVGFHM | 4.08 ± 0.057 |
| CNEDFLSQLVVLHFKEYGDN | inactive |
| LLVSSVSMTWHGKLSHTYFK | 4.62 ± 0.059 |
| KATRTFY | 0.495 ± 0.34 |
| TSGWNAERMFEHINGQFVFL | -0.195 ± 0.49 |
| ISINTICSNVDIGYGVAVFH | 3.92 ± 0.071 |
| LVSERGSWVGLRFCSRSSVT | 0.359 ± 0.56 |
| DCSDPCGSAPKDLSTKTVRC | 1.61 ± 0.26 |
| FLVFYLVCGSGLYMNNGQFF | -0.908 ± 0.41 |
| GHRNTDRSRREDRTKW | 4.82 ± 0.05 |
| LKQTGQLRVMSN | 0.039 ± 0.79 |
| PLVLKCRCLI | -1.32 ± 1.1 |
| DPPSSFEFMCLRLWV | 3.35 ± 0.085 |
| NLPSWLVGRRSVWECYRLDT | 0.043 ± 1 |
| ITFFLRDMIAC | -0.907 ± 1 |
| WSVCKRLCNVEMLAENLAID | -0.67 ± 0.79 |
| VNMIRRTINSGVYRWSFQLQ | 1.14 ± 0.54 |
| YVVVLNWNSHCSKYYELRQE | 8.402 ± 0.05 |
| NLVYYYHLLSRIVNSYNDAL | 0.811 ± 0.82 |
| GASVVDKSSRPCGAILEHSG | 0.894 ± 0.74 |
| LRTGHPSI | inactive |

| Substance | amyloid nucleation score |
| --- | --- |
| FMTFK | 3.14 ± 0.13 |
| KNNSFWGISLTGLLGYIYTR | -0.627 ± 1 |
| EFSIHAGLM | 0.222 ± 0.46 |
| SFFCMKQMLNFL | 0.533 ± 0.35 |
| HPRTPGLVIEDKKNLFLVWR | 5.22 ± 0.057 |
| SYGLLKYGI | -0.891 ± 0.35 |
| WSCYKNWG | -1.13 ± 0.5 |
| YSIYELPTHYLKCLRSYKSK | -0.627 ± 1.1 |
| SNFETDTL | 1.82 ± 0.14 |
| RRRTEGN | 0.304 ± 0.8 |
| RLVRVGYLGRKTQRRSCQKL | 0.686 ± 0.2 |
| ILWNYIYDKSFGITPDGFV | -0.398 ± 1 |
| SHGEKSVDDEGSGIGERWQC | 1.27 ± 0.33 |
| MFGGPTFNMRWFFTFFSRGR | 4.46 ± 0.046 |
| YGQKVMPESMKQSFNFMTEI | -0.573 ± 0.63 |
| RLHPMRSNI | -0.43 ± 0.3 |
| SPLHRDCGNQLTE | 0.814 ± 0.17 |
| TGLYFLNSWIIMLRL | 4.434 ± 0.033 |
| LCVYMFT | 3.51 ± 0.12 |
| ARLLTRNINESNRFI | 0.065 ± 0.28 |
| SVINYVFMGDHPYHNVIFRF | 7.576 ± 0.051 |
| VFYRASRSFKQSVRAPVGLR | -0.675 ± 0.55 |
| FCFMIEGIFMCRLLLSRASF | inactive |
| LMGGYLEYGSFVTT | 0.453 ± 0.51 |
| KTRLPGVL | inactive |

| Substance | amyloid nucleation score |
| --- | --- |
| RDGLVQMDVVLINVRVEVVC | -0.13 ± 0.76 |
| WESRLLEYLCTDVNTME | -0.553 ± 0.48 |
| GVTSCLRRPWFKYVILSPRP | 1.44 ± 0.21 |
| GFLYR | -1.23 ± 0.3 |
| FFGLVNWVGLGVHRSMTFAK | -0.609 ± 0.41 |
| TCCKLEDSYSWSALKLTSLA | 1.27 ± 0.35 |
| MRVNECCKAEGSQGRLARLV | 0.97 ± 0.55 |
| ELDGYLVLFFTGLNP | -0.418 ± 0.63 |
| VVKLMAMFGRTNVLTLERHL | 0.655 ± 0.31 |
| YRKAGSSQTGNFLLLLLDGG | 0.067 ± 0.63 |
| IIIIATEHK | 3.48 ± 0.16 |
| YCITEVRWAVA | 5.61 ± 0.058 |
| QWTHERSEPWHCSDVRSFIE | 5.757 ± 0.044 |
| VVIILNDTNFLMINMVQRVM | 4.327 ± 0.039 |
| DWTDCYWMLRDTGGFSIS | -1.35 ± 0.78 |
| FATQGSHKAVLGRSVHHLCR | -0.447 ± 0.61 |
| MGVLEGLSWVSRNKISGVLQ | -0.191 ± 0.55 |
| TAHHITSVWYVVLVRLRFRQ | 1.76 ± 0.35 |
| IIMLYEYHLITGTMNAMHRV | inactive |
| MIQHICELLG | -0.317 ± 0.32 |
| TAVERVSTR | 4.94 ± 0.08 |
| PGLRGGA | -0.398 ± 0.76 |
| VAKAAHFSLVIMYLFK | 0.01 ± 0.43 |
| VTWALCAGGRQFVTFSS | 8.505 ± 0.045 |
| TWGGFRY | 1.76 ± 0.48 |

| Substance | amyloid nucleation score |
| --- | --- |
| FYRGSQVMPR | -0.647 ± 1.1 |
| KTIRRDVCIVVLSLQSDLNM | 5.62 ± 0.069 |
| FAFICTR | inactive |
| GGNTVSHQK | -0.427 ± 1.1 |
| FYCLCTTDGICLEDLL | -0.097 ± 1.1 |
| HRLVGTC | 1.86 ± 0.21 |
| GYGVAWLYGISDSVRLRAPY | 0.335 ± 0.42 |
| IHWNKIMRFTFKYGILLYPS | -0.525 ± 1.1 |
| RIQDLMVLTEGYRRDVIGPG | 0.533 ± 0.56 |
| YMTEIANKRSPRACWIGERM | -0.156 ± 0.79 |
| LCASHIYL | 0.087 ± 0.79 |
| KCSKLRGYTCIMLSIGCLNY | 2.71 ± 0.07 |
| LFAYCMDSHLHTTSKFILTL | 0.047 ± 0.5 |
| VSNREMYVNR | 0.086 ± 0.74 |
| LWFQVTFDRICLQITTHTEL | 4.86 ± 0.075 |
| FEVFLM | -0.499 ± 0.41 |
| KWIMWLDRYPDTSPCILYAQ | 4.42 ± 0.055 |
| LHSRFL | 0.236 ± 1.1 |
| VLECFFVA | 0.183 ± 0.5 |
| QVLLGTLHKVY | 1.4 ± 0.49 |
| IMEYAPLYFIMF | 4.16 ± 0.069 |
| LGYGRWCKVARPEYESGLTM | 0.042 ± 1.1 |
| VMSNFFVLRNGCWPMGRG | 6.124 ± 0.049 |
